Data from publication doi:10.1101/2024.08.21.608925.
Like-named read-outs stand apart in the source and are kept apart here.

Tests used:
[1] = molecular target: Multiple peptide resistance factor (MprF) from Pseudomonas aeruginosa, wild type, CPD-His construct after IP6 cleavage (Pseudomonas aeruginosa); assay: cryo-EM structure
[2] = molecular target: Multiple peptide resistance factor (MprF) from Pseudomonas aeruginosa, wild type, CPD-His construct after IP6 cleavage (Pseudomonas aeruginosa); assay: cryo-EM structure; remark: listed apart in the source

## Multiple peptide resistance factor (MprF) from Pseudomonas aeruginosa, wild type, CPD-His construct after IP6 cleavage (enzyme)
[1]
  stoichiometry N: 2
[2]
  stoichiometry N: 2
